We go through one substance from patent US20200360437A1.

This assay has as its target NKG2D ligand MIC-A and MIC-B molecules on tumor cells. Nature of the assay: cell-based or functional assay.

Consider “fusion protein NKG2D-CD8αhinge-CD8TM-4-1BB-CD3ζ (chimeric antigen receptor expressed on NK-92 cells)”, for which the specific lysis activity (CCK-8), A549 cells, effector:target 0.5:1 is 21%; the specific lysis activity (CCK-8), A549 cells, effector:target 1:1 was found to be 30%; the specific lysis activity (CCK-8), H1299 cells, effector:target 0.5:1 came out at 39%; the specific lysis activity (CCK-8), H1299 cells, effector:target 1:1 is 80%. Further, the specific lysis activity (CCK-8), MCF-7 cells, effector:target 0.5:1 was 43%; the specific lysis activity (CCK-8), MCF-7 cells, effector:target 1:1 came out at 56%; the specific lysis activity (CCK-8), MDMB-231 cells, effector:target 0.5:1 came to 7%; the specific lysis activity (CCK-8), MDMB-231 cells, effector:target 1:1 stood at 14%. Also, the specific lysis activity (CCK-8), SW-480 cells, effector:target 0.5:1 stood at 8% and the specific lysis activity (CCK-8), SW-480 cells, effector:target 1:1 worked out at 16%.
